Positions count from the first letter of the chain named. Names may count otherwise. “And” between values parts separate entries of the source, which are not always exact repeats. Identical values can stand only once.
How the values were obtained:
Human CLEC12A-His [1] = molecular target: T1, Human CLEC12A-His (human, UniProt Q5QGZ9 65-265); experiment: SPR Biacore 8K 37 C; TriNKET captured on anti-hFc chip, hCLEC12A-His as analyte; 1:1 fit; pH 8.0 control, n=2
T1 construct: Recombinant soluble protein made in house (Dragonfly Tx); The hCLEC12A spot of the HuProt array is written under this molecule as well; also called hCLEC12A-His; hCLEC12A; not shown: His tag
T1 sequence: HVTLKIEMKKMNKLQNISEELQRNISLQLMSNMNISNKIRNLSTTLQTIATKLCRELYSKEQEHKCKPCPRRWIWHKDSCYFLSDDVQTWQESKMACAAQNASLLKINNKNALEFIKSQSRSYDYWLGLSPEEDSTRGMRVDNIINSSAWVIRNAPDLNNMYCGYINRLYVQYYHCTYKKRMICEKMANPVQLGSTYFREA

Human CLEC12A-His [2] = molecular target: T1, Human CLEC12A-His; experiment: SPR Biacore 8K 37 C; TriNKET captured on anti-hFc chip, hCLEC12A-His as analyte; 1:1 fit; after 0.02% H2O2 24 h, n=2
Human CLEC12A-His [3] = molecular target: T1, Human CLEC12A-His; experiment: SPR Biacore 8K 37 C; TriNKET captured on anti-hFc chip, hCLEC12A-His as analyte; 1:1 fit; after 2 wks 2-8 C in CST pH 7.0, n=2
mFc-hNKG2D [4] = molecular target: T2, mFc-hNKG2D (human, UniProt P26718 73-216); experiment: SPR Biacore 8K 37 C; mFc-hNKG2D captured on anti-mFc chip, TriNKET as analyte; steady state fit; after 2 wks 40 C at pH 8.0
T2 construct: extracellular domain; Made in house (Dragonfly Tx); the order of tag and ECD follows the name mFc-hNKG2D; also called mFc-tagged human NKG2D; not shown: mouse Fc tag
T2 sequence (looked up): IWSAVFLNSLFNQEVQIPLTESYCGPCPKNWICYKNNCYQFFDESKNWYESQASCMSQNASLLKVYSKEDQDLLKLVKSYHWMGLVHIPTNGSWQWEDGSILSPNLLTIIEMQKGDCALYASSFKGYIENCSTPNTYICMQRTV

Human CLEC12A-His [5] = molecular target: T1, Human CLEC12A-His; experiment: SPR Biacore 8K 37 C; TriNKET captured on anti-hFc chip, hCLEC12A-His as analyte; 1:1 fit; after 4 wks 25 C in CST pH 7.0, n=2
mFc-hNKG2D [6] = molecular target: T2, mFc-hNKG2D; experiment: SPR Biacore 8K 37 C; mFc-hNKG2D captured on anti-mFc chip, TriNKET as analyte; steady state fit; pH 5.0 control
[7] = molecular target: T3, mFc-hNKG2D (recombinant mFc-tagged human NKG2D dimer) (human, UniProt P26718 73-216); experiment: SPR 37C, mFc-hNKG2D captured, 1:1 kinetic fit
T3 construct: extracellular domain; Made in house; not shown: mouse Fc tag
T3 sequence (looked up): T2 sequence (looked up)

[8] = molecular target: T4, Human CLEC12A-His (recombinant, K244 WT) (human, UniProt Q5QGZ9 65-265); experiment: SPR, two-state fit (kd1); after pH 8, 40C, 2 wks
T4 construct: Made in house (Dragonfly Tx); also called hCLEC12A; hCLEC12A-His; not shown: His tag
T4 sequence: T1 sequence

[9] = molecular target: T4, Human CLEC12A-His (recombinant, K244 WT); experiment: SPR, two-state fit; control sample
[10] = molecular target: T5, Human CLEC12A expressed on cells (Ba/F3-hCLEC12A, PL21, HL60) (human, UniProt Q5QGZ9 1-265); experiment: cell-based or functional assay
T5 sequence: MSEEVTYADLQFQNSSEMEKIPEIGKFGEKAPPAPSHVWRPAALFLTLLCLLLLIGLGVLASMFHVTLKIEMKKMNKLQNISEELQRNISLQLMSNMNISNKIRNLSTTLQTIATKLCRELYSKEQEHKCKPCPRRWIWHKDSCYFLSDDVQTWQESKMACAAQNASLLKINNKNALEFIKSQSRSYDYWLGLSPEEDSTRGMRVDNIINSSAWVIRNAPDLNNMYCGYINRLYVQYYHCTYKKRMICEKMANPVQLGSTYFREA

[11] = molecular target: T6, recombinant human CLEC12A-His (human, UniProt Q5QGZ9 65-265); experiment: SPR 37C, average
T6 construct: also called hCLEC12A-His; hCLEC12A
T6 sequence: T1 sequence

[12] = molecular target: T6, recombinant human CLEC12A-His; experiment: SPR 37C
recombinant human FcRn = molecular target: T7, recombinant human FcRn (human, UniProt P55899 24-297; P61769 21-119); experiment: SPR 25C, pH 6.0, steady state; pH 6.0; second replicate
T7 construct: also called hFcRn
T7 sequence (P55899 24-297 limits assumed, chain 1 of 2): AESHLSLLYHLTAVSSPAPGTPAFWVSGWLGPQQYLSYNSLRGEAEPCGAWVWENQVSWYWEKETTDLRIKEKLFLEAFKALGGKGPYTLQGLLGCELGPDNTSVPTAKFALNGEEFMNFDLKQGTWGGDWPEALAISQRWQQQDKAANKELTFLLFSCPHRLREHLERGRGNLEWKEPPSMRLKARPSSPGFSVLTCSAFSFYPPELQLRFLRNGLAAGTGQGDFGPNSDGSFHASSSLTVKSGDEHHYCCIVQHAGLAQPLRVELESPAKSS
T7 sequence (P61769 21-119 limits assumed, chain 2 of 2): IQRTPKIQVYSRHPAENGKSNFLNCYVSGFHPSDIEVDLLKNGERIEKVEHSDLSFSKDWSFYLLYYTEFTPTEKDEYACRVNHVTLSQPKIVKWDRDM

HER2 = experiment: SPR specificity test
BCMA = molecular target: T8, BCMA; experiment: SPR specificity test
T8 chain: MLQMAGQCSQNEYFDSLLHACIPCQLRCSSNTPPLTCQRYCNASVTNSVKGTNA

[13] = molecular target: T9, recombinant cynomolgus FcRn (cynomolgus monkey, UniProt Q8SPV9 24-297; Q8SPW0 21-119); experiment: SPR 25C, pH 6.0, steady state; pH 6.0; fourth replicate
T9 construct: also called cFcRn; cyno FcRn
T9 sequence (Q8SPV9 24-297 limits assumed, chain 1 of 2): as the sequence (P55899 24-297 limits assumed, chain 1 of 2) above, with N39D, E44Q, G99S, S189G, S190N, L217M, S269T counted along it
T9 sequence (Q8SPW0 21-119 limits assumed, chain 2 of 2): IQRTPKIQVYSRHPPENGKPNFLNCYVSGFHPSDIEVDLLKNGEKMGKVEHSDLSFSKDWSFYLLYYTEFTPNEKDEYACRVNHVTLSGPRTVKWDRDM

recombinant human CD16b = molecular target: T10, recombinant human CD16b (human, UniProt O75015 17-200, limits assumed, biotinylated); experiment: SPR 25C, steady state, average
T10 construct: also called FcγRIIIb
T10 sequence (O75015 17-200 limits assumed): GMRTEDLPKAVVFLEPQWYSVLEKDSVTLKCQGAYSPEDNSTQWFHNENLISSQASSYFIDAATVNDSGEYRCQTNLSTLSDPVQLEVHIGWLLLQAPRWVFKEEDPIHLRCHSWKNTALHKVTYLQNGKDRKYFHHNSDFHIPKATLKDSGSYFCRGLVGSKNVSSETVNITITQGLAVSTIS

B1: F3'-1602 TriNKET (bispecific antibody, human IgG1, kappa)
chain: QLQLQESGPGLVKPSETLSLTCTVSGFSLTNYGLHWIRQPPGKCLEWIGVIWSGGKTDYNPSLKSRVTISKDTSKNQFSLKLSSVQAADTAVYYCAKYDYDDSLDYWGQGTLVTVSSGGGGSGGGGSGGGGSGGGGSDIQMTQSPSSLSASVGDRVTITCHASQNINFWLSWYQQKPGKAPKLLIYEASNLHTGVPSRFSGSGSGTRFTLTISSLQPEDIATYYCQQSHSYPLTFGCGTKLEIKGSDKTHTCPPCPAPELLGGPSVFLFPPKPKDTLMISRTPEVTCVVVDVSHEDPEVKFNWYVDGVEVHNAKTKPREEQYNSTYRVVSVLTVLHQDWLNGKEYKCKVSNKALPAPIEKTISKAKGQPREPRVYTLPPCRDELTKNQVSLTCLVKGFYPSDIAVEWESNGQPENNYKTTPPVLVSDGSFTLYSKLTVDKSRWQQGNVFSCSVMHEALHNHYTQKSLSLSPG
heavy: EVQLVESGGGLVKPGGSLRLSCAASGFTFSSYSMNWVRQAPGKGLEWVSSISSSSSYIYYADSVKGRFTISRDNAKNSLYLQMNSLRAEDTAVYYCARGAPIGAAAGWFDPWGQGTLVTVSSASTKGPSVFPLAPSSKSTSGGTAALGCLVKDYFPEPVTVSWNSGALTSGVHTFPAVLQSSGLYSLSSVVTVPSSSLGTQTYICNVNHKPSNTKVDKKVEPKSCDKTHTCPPCPAPELLGGPSVFLFPPKPKDTLMISRTPEVTCVVVDVSHEDPEVKFNWYVDGVEVHNAKTKPREEQYNSTYRVVSVLTVLHQDWLNGKEYKCKVSNKALPAPIEKTISKAKGQPREPQVCTLPPSRDELTENQVSLTCLVKGFYPSDIAVEWESNGQPENNYKTTPPVLDSDGSFFLYSWLTVDKSRWQQGNVFSCSVMHEALHNHYTQKSLSLSPG
light: DIQMTQSPSSVSASVGDRVTITCRASQGISSWLAWYQQKPGKAPKLLIYAASSLQSGVPSRFSGSGSGTDFTLTISSLQPEDFATYYCQQGVSFPRTFGGGTKVEIKRTVAAPSVFIFPPSDEQLKSGTASVVCLLNNFYPREAKVQWKVDNALQSGNSQESVTEQDSKDSTYSLSSTLTLSKADYEKHKVYACEVTHQGLSSPVTKSFNRGEC
notes: Trispecific F3' format: CLEC12A scFv-Fc paired with NKG2D Fab-Fc; Stressed and control samples of the stability studies are the same molecule; also called AB0237
With B1 the Kd (Human CLEC12A-His [1]) was 1.1 nM, the koff (Human CLEC12A-His [1]) was 0.00084 s⁻¹ and the kon (Human CLEC12A-His [1]) was 801000 M⁻¹ s⁻¹. It also gave a Kd (Human CLEC12A-His [2]) of 1.1 nM, a koff (Human CLEC12A-His [2]) of 0.00087 s⁻¹ and a kon (Human CLEC12A-His [2]) of 806000 M⁻¹ s⁻¹. The Kd (Human CLEC12A-His [3]) was 0.89 nM, the koff (Human CLEC12A-His [3]) was 0.0006 s⁻¹ and the kon (Human CLEC12A-His [3]) was 672000 M⁻¹ s⁻¹. For the same binder, the Kd (mFc-hNKG2D [4]) was 919 nM, the Kd (Human CLEC12A-His [5]) was 0.91 nM and the koff (Human CLEC12A-His [5]) was 0.000719 s⁻¹. For the same binder, the kon (Human CLEC12A-His [5]) was 788000 M⁻¹ s⁻¹ and the Kd (mFc-hNKG2D [6]) was 684 nM.

B2: AB0089 TriNKET (bispecific antibody, human IgG1, kappa)
chain: B1 chain with S53V, K56A, K71V, Y98G, D101G, S103T, R207D, I220F
heavy: B1 heavy
light: B1 light
notes: F3' format heterodimer of three chains; human IgG1 Fc with EW-RVT and Y349C/S354C mutations; also called AB0089 Lot AB0089-002; CLEC12A TriNKET AB0089
B2 was tested, and the Kd [7] was 872 nM and 892 nM and 880 nM, the koff [7] was 0.141 s⁻¹ and 0.142 s⁻¹ and 0.146 s⁻¹ and the kon [7] was 161000 M⁻¹ s⁻¹ and 159000 M⁻¹ s⁻¹ and 166000 M⁻¹ s⁻¹. For the same binder, the koff [8] was 0.049 s⁻¹, the Kd [9] was 1 nM and the “EC50, KHYG1-CD16aV cytotoxicity assay, HL-60 cells; control (AB0089-002)” value [10] was 0.04 nM. For the same binder, the “EC50, KHYG1-CD16aV cytotoxicity assay, HL-60 cells; low pH hold (AB0089-004)” value [10] was 30 pM.

B3: F3'-1602 TriNKET (other)
chain: B1 chain
heavy: B1 heavy
light: B1 light
notes: CLEC12A scFv-Fc, NKG2D A49MI Fab-Fc, human IgG1 Fc; also called AB0237
With B3 the Kd [11] was 0.59 nM, the koff [11] was 0.000494 s⁻¹ and the kon [11] was 844000 M⁻¹ s⁻¹. The Kd [12] was 1.2 nM and 1.19 nM, the koff [12] was 0.000952 s⁻¹ and 0.000913 s⁻¹ and the kon [12] was 791000 M⁻¹ s⁻¹ and 768000 M⁻¹ s⁻¹. For the same binder, the Kd (recombinant human FcRn) was 1100 nM, the binding result (HER2) was “no binding (tested: 500 nM)” and the binding result (BCMA) was “no binding (tested: 500 nM)”. It also gave a Kd [13] of 1500 nM and a Kd (recombinant human CD16b) of 7.5 µM.

— patent US20220119534A1 (DRAGONFLY THERAPEUTICS, published 2022)
